Experimental findings from paper doi:10.1101/2025.07.09.663820 (bioRxiv, 2025) are described below.

Test [1] concerns the target CHIP13 extracellular domain (residues 33-253) (Lotus japonicus). The test is described as follows: SEC. A general note: Size exclusion chromatography separates by hydrodynamic size, large species first.
Test [2] deals with CHIP13 extracellular domain (residues 33-253) (Lotus japonicus, UniProt D3KU00, N-glycans (one on N143)).

What is called stoichiometry N is a count of units in the complex or per binding partner. Regarding “CHIP13 extracellular domain (residues 33-253) (domain or fragment)”, the stoichiometry N in test [1] was determined as 2.

B1: Nb-aCHIP13 (VHH)
VHH: QLQLVESGGGLVQAGGSLRLSCATSGTTFRLNTMGWYRQAPGKQRELVATISRDFKTNYADSVKGRFTISRDNAKHTVDLQMNSLTPEDTAVYYCLVRDQREWYGPEYDNWGRGTQVTVSS
The Kd is a measure of binding affinity in units of concentration. A high value points to a looser complex. With B1, in test [2], binding was put at a Kd of 8.1 nM.
